Publication PMC7943553 (2021)

Columns and labels:
[1] = biological target: T1, P. vivax Reticulocyte Binding Protein 2b, residues 161–1454 (P. vivax strain Salvador I, UniProt A5K736 161-1454, DyLight 488 (NHS ester) in the FRET assay; biotin (BirA site) in the competition ELISA between human mAbs); test: BLI; representative sensorgram
T1 chain: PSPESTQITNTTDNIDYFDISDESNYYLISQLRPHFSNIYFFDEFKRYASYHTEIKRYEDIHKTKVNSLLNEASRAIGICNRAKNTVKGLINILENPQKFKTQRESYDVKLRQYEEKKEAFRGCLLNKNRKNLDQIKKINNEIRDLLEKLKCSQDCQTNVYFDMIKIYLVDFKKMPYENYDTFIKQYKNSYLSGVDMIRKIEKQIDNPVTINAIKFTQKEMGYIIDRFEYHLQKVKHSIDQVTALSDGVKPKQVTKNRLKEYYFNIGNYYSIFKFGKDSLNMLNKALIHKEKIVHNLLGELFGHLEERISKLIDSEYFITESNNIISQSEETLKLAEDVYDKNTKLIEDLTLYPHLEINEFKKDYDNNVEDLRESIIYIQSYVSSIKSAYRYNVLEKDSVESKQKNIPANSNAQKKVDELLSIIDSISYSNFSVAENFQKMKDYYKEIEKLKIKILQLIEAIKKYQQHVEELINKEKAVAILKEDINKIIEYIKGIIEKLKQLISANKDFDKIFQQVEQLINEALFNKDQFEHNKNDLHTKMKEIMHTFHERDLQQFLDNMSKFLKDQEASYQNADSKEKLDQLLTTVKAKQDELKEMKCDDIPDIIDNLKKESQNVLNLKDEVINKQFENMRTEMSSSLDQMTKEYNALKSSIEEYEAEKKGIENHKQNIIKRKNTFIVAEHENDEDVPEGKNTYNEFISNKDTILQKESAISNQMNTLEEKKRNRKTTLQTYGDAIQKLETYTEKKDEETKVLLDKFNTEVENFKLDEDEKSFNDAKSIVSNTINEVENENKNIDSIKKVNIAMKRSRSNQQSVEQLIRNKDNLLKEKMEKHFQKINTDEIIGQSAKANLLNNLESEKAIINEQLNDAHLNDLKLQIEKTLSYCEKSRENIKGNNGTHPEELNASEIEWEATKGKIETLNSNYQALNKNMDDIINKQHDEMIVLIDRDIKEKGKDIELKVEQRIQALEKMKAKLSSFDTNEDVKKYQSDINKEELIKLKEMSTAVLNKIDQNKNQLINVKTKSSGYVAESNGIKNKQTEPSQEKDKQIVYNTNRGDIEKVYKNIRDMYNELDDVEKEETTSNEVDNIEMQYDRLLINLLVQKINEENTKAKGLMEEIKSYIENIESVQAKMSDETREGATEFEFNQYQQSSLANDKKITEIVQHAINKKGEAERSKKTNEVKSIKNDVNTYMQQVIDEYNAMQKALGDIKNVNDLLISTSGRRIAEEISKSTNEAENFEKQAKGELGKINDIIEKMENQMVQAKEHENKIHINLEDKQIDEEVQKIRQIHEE

[2] = biological target: T1, P. vivax Reticulocyte Binding Protein …; test: BLI
[3] = biological target: T1, P. vivax Reticulocyte Binding Protein …; test: BLI

B1: PvRBP2b human mAb 273264 (antibody, V domains shown)
VH: EVQLLESGGGLVRPGGSQRLSCAASGFTFTPYAMTWVRQAPGKGLEWLSTISGSGGSTSYADSVKGRFTISRDNSKNILYLQMDSLRAEDTALYYCTKDKDEYTFGHNAFDVWGRGTMVTVSS
VL: SYELTQAPSVSVAPGQTARITCGGDNIGRTSVHWYQQKPGQAPVLVIFYDNDRPSGIPERFSGSNSGNMATLSISRVEVGDEADYYCQVWDSNNDHPVFGGGTKLTVV
Kd [1]: < 0.01 nM
koff [2]: 3.02e-05 s⁻¹
Kd [3]: 0.083 nM

B2: PvRBP2b human mAb 283284 (antibody, V domains shown)
VH: QVQLQQWGAGLLKPSETLALTCTVYGGSSSGYYWNWIRQSPGKGLEWIGEISDSGSTIYNPSLESRVTMSVDTSKNQFSLKLTSVTAADTAVYYCAKAILTRYNWLDPWSQGTLVTVSS
VL: DIVMTQSPSSLSASVGDRISISCRASQGVNSALAWYQQKPGKAPKLLIYDASTLESGVPSRFSGSGSGTDFALTINSLQPEDFATYYCQQFNSYPLTFGGGTKVEIK
Kd [1]: 0.1 nM
koff [2]: 6e-05 s⁻¹
Kd [3]: 0.246 nM

B3: PvRBP2b human mAb 243244 (antibody, V domains shown)
VH: QVQLVESGGGVVQSGKSLRVSCAASGFTFSSYGMHWVRQAPGKGLEWVAFISYDGDNKYSADSVKGRLTISRDNSKNTLYLQMNSLRPEDTAVYYCAKESNYGENAFDIWGQGTMVTVSS
VL: QSALTQPRSVSGSPGQSVTISCTGTSSDVGFYNFVSWYQHHPGKAPKLIIYDVSERPSGVPDRFSGSKSGNTASLSISGLQPEDEADYYCCSYAGTYTFVFGSGTKVTVL
Kd [1]: < 0.01 nM
koff [2]: 1.15e-05 s⁻¹
Kd [3]: 0.0366 nM

B4: PvRBP2b human mAb 241242 (antibody, V domains shown)
VH: EVQLLESGGGLVQPGGSLRLSCAVSGFTFRNYALSWVRQAPGKGLDWVSTISASGGATYYADSVKGHFTISRDNSKNILYLDMKSLRAEDTAIYYCARDGGSYTPYFFLDSWGQGALVTVSS
VL: SYELTQPASVSVAPGQTAQITCGGNSIGRKSIHWYQHKPGQAPVLVISYDSDRPSGIPERFSGSNSGNTATLTISKVEAGDEADFYCQVRDSDNDHVVFGGGTKLTVL
Kd [1]: < 0.01 nM
koff [2]: 2.13e-05 s⁻¹
Kd [3]: 0.061 nM

B5: PvRBP2b human mAb 258259 (antibody, V domains shown)
VH: EVQLLESGGGLVRPGGSQRLSCAASGFTFTPYAMTWVRQAPGKGLEWLSTISGSGGSTYYADSVKGRFTISRDNSKNMLYLQMNSLTAEDTALYYCTKDKDEYTFGHNAFDVWGQGTMVTVSS
VL: SYELTQAPSVSVAPGQTARITCGGDNIGRKTVNWYQQKPGQAPVLVIYYDNDRPSGIPERFSGSNSGNMATLSISRVEVGDEADYYCQVWDSNNDHPVFGGGTKLTVV
Kd [1]: < 0.01 nM
koff [2]: 7.57e-06 s⁻¹
Kd [3]: 0.0269 nM

B6: PvRBP2b human mAb 253245 (antibody, V domains shown)
VH: EVQLVQSGAEVKKPGSSMKVSCKASGGTFNRYVFSWVRQAPGQGLEWMGGILPILETTYYAKNFKGRVTITADESTSTVYMELSSLTSEDTAVYFCARDEHDYVWGSYRPSLTGPWGQGTLVTVSS
VL: QSALTQPPSTSGSPGQSVTISCTGTGIDVGGFSYVSWFQYHPGKAPKLIIFEVTKRPSGVPDRFSGSKSGNTASLTISGLQADDEAEYYCSSYAVNNNFVFGTGTKVTVL
Kd [1]: < 0.01 nM
koff [2]: 8.17e-06 s⁻¹
Kd [3]: 0.0307 nM

B7: PvRBP2b human mAb 251249 (antibody, V domains shown)
VH: EVQLVESGGGLVKPGGSLRLSCEASGFLFSSYSMNWVRQAPGKGLEWVSSITGYSSEVFYTDSVKGRFTVSRDNSKNSLYLQMDSLRAEDTAVYYCARALTIFGVVITDYWFFDLWGRGTLVTVSS
VL: EIVLTQSPATLSLSPGDRATLSCRASQSVTTFLAWYQQKPGQAPRLLIYDVSNRATGIPARFSGSGSGTDFTLTISSLEPEDFAVYYCQQRSNWGLTFGGGTKVEIK
Kd [1]: < 0.01 nM
koff [2]: < 1e-06 s⁻¹
Kd [3]: < 0.01 nM

B8: PvRBP2b human mAb 237235 (antibody, V domains shown)
VH: QVQLVESGGGVVQPGRSLRLSCAASGFMFNSYGMHWVRQAPGKGLEWMAFISYDGSDDYYGDSVKGRITISRDNSKNTLFLHINSLRTEDTAVYYCAKESNYGENAFDVWGHGTMVTVSS
VL: QSALTQPRSVSGSPGQSVTISCTGTSNDVGFYNFVSWYQHHPGKAPKLMIYDVTERPSGVPDRFSGSKSGNTASLTISGLQAEDEAEYYCCSYAGTYTFVFGHGTKVTVL
Kd [1]: 0.1 nM
koff [2]: 3.45e-05 s⁻¹
Kd [3]: 0.0883 nM
